From the DeepSol protein solubility set

Assay: soluble on expression in E. coli; label from the status in PepcDB or PDB records

Sequence | soluble on expression in E. coli
MLICNSSFPYLQVDYKIGVKGLLAKSKEDIDKCCKGEYFMQLKYVDTKEEIIAINRKSKHIEPHLHNALEIVCVTSGSLELGVGQELYHMEKGDIGFVFPDVIHHYQVLTPGVNKATYLIASPFSIDKFADIMQSMAPEYPIIKAEKVEPEVYRVINAILETEQSDITVAQAYLQIVLARCIGKLNLVEKSSVGSNDLIYQTVSYISANFKKKFSLEEMAKDLGVGKYVLSRLFSKTFHRNFNQYLNDARLNYACHRLENTSDSITNICLDSGFESQRTFNRVFKEKYKISPSDYRSTCVKEMLS | not soluble
MAHHHHHHMQTLDINNSFAVPFDEDPQDAGVWFFDTNYAQEMFAMHKRVLPKVKVVGWYSSGPTIQPNDMLLHLLVADRFCLNPVYCVVNTDPNNKGVPVRAYTTVQGREGTRSLEFRNIPTHLGAEEAEEIGIEHLLRDLTDSTITTLSTQVQERELSLVHLCKVLQQIEEYLKDVGNAVMPISEDVLEVLQELISLQPEIYARRSSTEMIRHTNDEAIATFLAAIARCIGALHGVIMNRRKLARELQEIKDRRARAAETRLENEKMKIEEAAKEKDTNQA | soluble
MAHHHHHHMIRWAAVLRCGAHGVREDRQALARHHLNLLDKRHWELTTPSRALPVVEVLIRSGVLMDRLEKSSTKPLASLTPSMTKKERSLVQKLSHMLHQASPPTACRVSRNAVEEDEAVRAAYSAACATGACTIDVVVDLAFVRHLRFPLSALMLLELVESRCVKVCWTRGKPCLSKELLDSICDLFAEHEQSLDFRATWWLLSLLGGGTQVRDWPITLSAGKRLFRLCVRRIHYLLPDLPLEDLLLAYVQLARIEGYEKPFIVLGEMERLLLATSSDEYTGVSTNVLLRFMTMPFAVRHADLNLRLCAGWSAASRITEFTQEECLAAFAIVAALHEGCVAESAAAVAALRDWEMLHDALFAQVFCVAHEMTAADCFRILDQSELINVSGWGITVPQMLLEKLKKRILSECTHYAMDECRVPETAELLLRVALGLQALMQRYTVLPSSAADEHAVAECILLLERCITVLPPHG | not soluble
MANSNTQRMGTGSAILPARRRRATPRRLPKRAAHHYTPRVFSAIEPENSPMLKRSLALAAGIALSLSAALAHAETLKELKVSAIPDEAPTELLRKFKPLGAYLEKQLGMPVKFVPVADYAGVVEALAADRLDMAWLGGFTFVQARLKTGNAIPLVQREQDQQFTSKFITADPQVKSLQDLKGKTFAFGSVSSTSGSLMPRYFMQKDGIVPEQFFSRVAYSGAHDATVAWVQAGKVDAGVLNASVWQKLVDSGKVDTAKVKVFATTPTYYDYNWTVRGNLDPALAEKIKQAFLALDPAKPADKEILDLQAASRFIETNPDNYKGIEESARAAGLLK | not soluble
MGHHHHHHSHMGCDGGTIPKRHELVKGPKKVEKVDKDAELVAQWNYCTLSQEILRRPIVACELGRLYNKDAVIEFLLDKSAEKALGKAASHIKSIKNVTELKLSDNPAWEGDKGNTKGDKHDDLQRARFICPVVGLEMNGRHRFCFLRCCGCVFSERALKEIKAEVCHTCGAAFQEDDVIVLNGTKEDVDVLKTRMEERRLRANREKKTKKPKAAESVSKPDVSEEAPGPSKVKTGKPEEASLDSREKKTNLAPKSTAMNESSSGKAGKPPCGATKRSIADSEESEAYKSLFTTHSSAKRSKEESAHWVTHTSYCF | not soluble
MKKVNLAVVGATGMVGRTFIKVLEERNLPIDNIYFFSSSRSAGSTVTFNNKEYVVEELTETSFDRGIDIALFSAGASVSEKFAPIAASKGCVVVDNSSCWRMNEKVPLVVPEVNPQDISCHQGIIANPNCSTIQAVVVLKPLHDKYKIKRIVYSTYQAVSGAGHNGYMDLENGLKGEPPKKFPHPIAGNCLPHIDSFLPNGYTKEEMKMVNETRKILGDYSIRITATTVRVPVFNGHSESINVEFEKQFDLEELKEVLRNAPGVVVQDDVANNVYPMPIYASGRDETFVGRIRRDESVESGVNLWVVADNIRKGAATNAVQIAEELIKMWNK | soluble
MSKYKIFVDGAVGTTGLGIFERLRAAKDIELLTLADEQRKDLKARLANVAAADLTLLCLPDTASKQLVLHAPPSAKICDTSTAHRVDPAWVYGFAELSGQFNNIQTATRVAIPGCHATGYIALLRPLIERHYLNADYPFTCHSLTGYSGGGKAMIADYQAPIRDDKFKAPRMYGLTLHHKHLAEMCAFTGSSNPPIFTPIVADYYSGMLVNVPLPLAAFTQEANDGEKISGILADYYREASLINVHYVNDLPTDGMVAANSLAGKDRLDIFVYANQTQVVLSAIFDNLGKGASGAAIQCMNIMLGRDQLADLHI | not soluble
MNNQKQQKPTLSGQRFKTRKRDEKERFDPTQFQDCIIQGLTETGTDLEAVAKFLDASGAKLDYRRYAETLFDILVAGGMLAPGGTLADDMMRTDVCVFAAQEDLETMQAFAQVFNKLIRRYKYLEKGFEDEVKKLLLFLKGFSESERNKLAMLTGVLLANGTLNASILNSLYNENLVKEGVSAAFAVKLFKSWINEKDINAVAASLRKVSMDNRLMELFPANKQSVEHFTKYFTEAGLKELSEYVRNQQTIGARKELQKELQEQMSRGDPFKDIILYVKEEMKKNNIHFMKAFQKIVVLFYKAEVLSEEPILKWYKDAHVAKGKSVFLEQMKKFVEWLKNAEEESESEAEEGD | not soluble
MSLSTQSEAALEAGLIATLRQMDYEYVQIVEEDNLYANFKRQLEIHNRKRLEEHGRTEFTAEEFEKILIYLEGGTRFEKAKKLRDLYPLDTADGQRIWVEFLNRQQWCQNEFQVSNQITVEGRKKCRYDVTILINGLPLVQIELKRRGVELKQAYNQIQRYHKTSFHGLFDYIQLFVISNGVNTRYFANNPNSGYKFTFNWTDAANHPFNELDKFAVFFLEKCTLGKIIGKYIVLHEGDKCLMVLRPYQFYAVEKILDRVQNSNDNGYIWHTTGAGKTLTSFKAAQLVSELDDVDKVMFVVDRHDLDTQTQSEYEAFEPGAVDSTDNTDELVKRLQSNSKIIITTIQKLNAAVSKTWYSSKIDAIRHSRIVMIFDECHRSHFGDSHKKIMKFFGNAQIFGFTGTPIFTENAVDGHTTKEIFGNCLHKYLIKDAIADENVLGFLVEYYHGNEIVDNDNQARMEEIAKFILNNFNKSTFDGEFDALFAVQSVPMLIRYYKIFRSLNPKIRIGAVFTYAANNSQDDEQTGMGTGQYAKESVGEADELQAIMDDYNENFGTSFTTENFRAYYDDINLRMKKKKADMKPLDLCLVVGMFLTGFDSKKLNTLYVDKNMEYHGLLQAFSRTNRVLNEKKRFGKIVCFRDLKNNVDTSIKLFSNSDNPEDIVRPPFEKVKQEYKSLSTDFLQKYPTPSSIDFLQSENDKKNFVLAFRDIIRKHAEIQIYEDYSEDAEDLGMTEQQFNDYKSKYLDITVGFIDPPAAPSTVAEDPVPYGNNQGLEDIDFCLELLHSDIINVAYILALINDLDPYSDDYSEKRQNIIDTMIKDAGMRGKAKLIDGFIKKNVDEDKENFMNGRNKADGTNELEERLNQYIVSERNKAVNDLADEEQISAEVLNHYMKEYDYLQKEQPEIIQKALKEKHLGLIKTRRALTRIMERLRSIIKTFNEGHHHHHH | soluble
MDVKPDRVIDARGSYCPGPLMELIKAYKQAKVGEVISVYSTDAGTKKDAPAWIQKSGQELVGVFDRNGYYEIVMKKVK | soluble
THVYNYDIPQDPESYVHRIGRTGRAGATGTSVTFVTNWEMDYLRDVEHLTKKRLLPMKPPTEEEAFAGRAAMAEQSIEELVQKTDVAKFEEQVDHLLEQHDAKTLVAALLNEVTKSDASEIKVKITPERPLPR | not soluble
MENREPPLLPARWSSAYVSYWSPMLPDDQLTSGYCWFDYERDICRIDGLFNPWSERDTGYRLWMSEVGNAASGRTWKQKVAYGRERTALGEQLCERPLDDETGPFAELFLPRDVLRRLGARHIGRRVVLGREADGWRYQRPGKGPSTLYLDAASGTPLRMVTGDEASRASLRDFPNVSEAEIPDAVFAAKRLEHHHHHH | soluble
